Consider three molecules from US20240016901A1, “COMPOSITIONS AND METHODS FOR PREVENTING AND TREATING SARS-COV-2 INFECTION” (priority 2020, published 2024).

Experiment [1] relates to SARS-CoV-2. In kind it is cell-based, SARS-CoV-2 WA1. The conditions noted are these: Huh-7 cells, MOI 0.2, 48 hrs p.i., FIG. 6C.
For experiment [2], the system named is IFNβ, ISG15, MX1, Viperin and IFITM3. The experiment in a line: qPCR of IFNβ and interferon-stimulated gene mRNA in Huh-7 cells. In kind it is cell-based, human. To be noted: lactoferrin-treated Huh-7 cells, FIG. 6D. For orientation: In qPCR the cycle at which signal appears reflects the starting amount.
Experiment [3] has as its system SARS-CoV-2. Nature of the experiment: microbe, parasite or virus in culture. The class given is cell-based. To be noted: Huh-7 cells; for anti-SARS-CoV-2 activity, percentage of infected Huh-7 cells: protein at 2.3 μM, FIG. 6E.
In experiment [4] the test system is SARS-CoV-2. The class given is cell-based, SARS-CoV-2 WA1. To be noted: iAECs, pretreatment 1.15 μM, MOI 10.

B1: Lacto ferrin: a protein found in milk and other secretory fluids; diet supplement (protein, UniProt P24627 20-708, looked up)
Lactotransferrin: APRKNVRWCTISQPEWFKCRRWQWRMKKLGAPSITCVRRAFALECIRAIAEKKADAVTLDGGMVFEAGRDPYKLRPVAAEIYGTKESPQTHYYAVAVVKKGSNFQLDQLQGRKSCHTGLGRSAGWIIPMGILRPYLSWTESLEPLQGAVAKFFSASCVPCIDRQAYPNLCQLCKGEGENQCACSSREPYFGYSGAFKCLQDGAGDVAFVKETTVFENLPEKADRDQYELLCLNNSRAPVDAFKECHLAQVPSHAVVARSVDGKEDLIWKLLSKAQEKFGKNKSRSFQLFGSPPGQRDLLFKDSALGFLRIPSKVDSALYLGSRYLTTLKNLRETAEEVKARYTRVVWCAVGPEEQKKCQQWSQQSGQNVTCATASTTDDCIVLVLKGEADALNLDGGYIYTAGKCGLVPVLAENRKSSKHSSLDCVLRPTEGYLAVAVVKKANEGLTWNSLKDKKSCHTAVDRTAGWNIPMGLIVNQTGSCAFDEFFSQSCAPGADPKSRLCALCAGDDQGLDKCVPNSKEKYYGYTGAFRCLAEDVGDVAFVKNDTVWENTNGESTADWAKNLNREDFRLLCLDGTRKPVTEAQSCHLAVAPNHAVVSRSDRAAHVKQVLLHQQALFGKNGKNCPDKFCLFKSETKNLLFNDNTECLAKLGGRPTYEEYLGTEYVTAIANLKKCSTSPLLEACAFLTR
Regarding B1, in experiment [1], the “viral replication (viral genome copies)” value is listed as “dose-dependent reduction of viral replication”. For the same molecule, in experiment [2], the “mRNA levels of IFNβ and interferon-stimulated genes ISG15, MX1, Viperin and IFITM3” value is “elevated”. The “antiviral activity against SARS-CoV-2 (in words)” value in experiment [3] was “dose-dependent (3 nM-2.3 μM) and MOI-dependent (0.2-10) antiviral activity”. Also, the “antiviral activity when added after infection” value in experiment [3] (2.3 μM added 1 or 24 hrs p.i., MOI 1, 5 and 10, FIG. 6B) was “retains antiviral activity”. For the same molecule, the midpoint of the response in experiment [3] (MOI 0.2, 10-point two-fold dilution dose response in triplicate), the EC50, lay at 308 nM. The “potentiation of efficacy in combination with remdesivir” value in experiment [3] (MOI 0.2, FIG. 6G, FIG. 7A) was “potentiates the efficacy”. Moreover, the “potentiation of efficacy in combination with hydroxychloroquine” value in experiment [3] (MOI 10, FIG. 6H, FIG. 7B) was “potentiates the efficacy”. Further, the IC50 in experiment [3] (read-out: IC50 against SARS-CoV-2 infection) came out at 308 nM. For the same molecule, the “reduction in the proportion of SARS-CoV-2 infected cells” value in experiment [4] was “two-fold reduction”.

B2: apolactoferrin: apolactoferrin (Jarrow Formulas, 121011); component of dietary supplements (protein, UniProt P24627 20-708, looked up)
Lactotransferrin: APRKNVRWCTISQPEWFKCRRWQWRMKKLGAPSITCVRRAFALECIRAIAEKKADAVTLDGGMVFEAGRDPYKLRPVAAEIYGTKESPQTHYYAVAVVKKGSNFQLDQLQGRKSCHTGLGRSAGWIIPMGILRPYLSWTESLEPLQGAVAKFFSASCVPCIDRQAYPNLCQLCKGEGENQCACSSREPYFGYSGAFKCLQDGAGDVAFVKETTVFENLPEKADRDQYELLCLNNSRAPVDAFKECHLAQVPSHAVVARSVDGKEDLIWKLLSKAQEKFGKNKSRSFQLFGSPPGQRDLLFKDSALGFLRIPSKVDSALYLGSRYLTTLKNLRETAEEVKARYTRVVWCAVGPEEQKKCQQWSQQSGQNVTCATASTTDDCIVLVLKGEADALNLDGGYIYTAGKCGLVPVLAENRKSSKHSSLDCVLRPTEGYLAVAVVKKANEGLTWNSLKDKKSCHTAVDRTAGWNIPMGLIVNQTGSCAFDEFFSQSCAPGADPKSRLCALCAGDDQGLDKCVPNSKEKYYGYTGAFRCLAEDVGDVAFVKNDTVWENTNGESTADWAKNLNREDFRLLCLDGTRKPVTEAQSCHLAVAPNHAVVSRSDRAAHVKQVLLHQQALFGKNGKNCPDKFCLFKSETKNLLFNDNTECLAKLGGRPTYEEYLGTEYVTAIANLKKCSTSPLLEACAFLTR
modifications: iron-free apo form
notes: apolactoferrin (Jarrow Formulas, 121011); component of dietary supplements
Consider B2, for which the “anti-SARS-CoV-2 activity, percentage of infected Huh-7 cells” value in experiment [3] is reported as “robust antiviral effect”.

B3: Hololactoferrin: Hololactoferrin (Sigma Aldrich, L4765) (protein, UniProt P02788 20-710, looked up)
Lactotransferrin: GRRRSVQWCAVSQPEATKCFQWQRNMRKVRGPPVSCIKRDSPIQCIQAIAENRADAVTLDGGFIYEAGLAPYKLRPVAAEVYGTERQPRTHYYAVAVVKKGGSFQLNELQGLKSCHTGLRRTAGWNVPIGTLRPFLNWTGPPEPIEAAVARFFSASCVPGADKGQFPNLCRLCAGTGENKCAFSSQEPYFSYSGAFKCLRDGAGDVAFIRESTVFEDLSDEAERDEYELLCPDNTRKPVDKFKDCHLARVPSHAVVARSVNGKEDAIWNLLRQAQEKFGKDKSPKFQLFGSPSGQKDLLFKDSAIGFSRVPPRIDSGLYLGSGYFTAIQNLRKSEEEVAARRARVVWCAVGEQELRKCNQWSGLSEGSVTCSSASTTEDCIALVLKGEADAMSLDGGYVYTAGKCGLVPVLAENYKSQQSSDPDPNCVDRPVEGYLAVAVVRRSDTSLTWNSVKGKKSCHTAVDRTAGWNIPMGLLFNQTGSCKFDEYFSQSCAPGSDPRSNLCALCIGDEQGENKCVPNSNERYYGYTGAFRCLAENAGDVAFVKDVTVLQNTDGNNNEAWAKDLKLADFALLCLDGKRKPVTEARSCHLAMAPNHAVVSRMDKVERLKQVLLHQQAKFGRNGSDCPDKFCLFQSETKNLLFNDNTECLARLHGKTTYEKYLGPQYVAGITNLKKCSTSPLLEACEFLRK
modifications: iron-saturated holo form
As for B3, the “anti-SARS-CoV-2 activity, percentage of infected Huh-7 cells” value in experiment [3] is “robust antiviral effect”.

The term EC50 denotes the concentration at which the effect is half-maximal. Usually IC50 stands for the concentration that gives 50% inhibition.
